Results on three molecules are retold here after US20220380801A1, “TRIPARTITE SYSTEMS FOR PROTEIN DIMERIZATION AND METHODS OF USE” (priority 2019, published 2022).

B1: PRSIM_36: Tn3 PRSIM binding molecule, SEQ ID NO: 8 (protein)
chain: RLDAPSQIEVKDVTDTTALITWSWPRDDDYDIWYFELTYGIKDVPGDRTTIKLLNYASPYSIGNLKPDTEYEVSLISVVPDTYGRGTSNPAKITFKTGL
modifications: PRSIM_36
B2: PRSIM_47: Tn3 PRSIM binding molecule, SEQ ID NO: 9 (protein)
chain: RLDAPSQIEVKDVTDTTALITWSRPGVSIWYFELTYGIKDVPGDRTTIKLDYRSYYYSIGNLKPDTEYEVSLISGSYGLVGVRASNPAKITFKTGL
modifications: PRSIM_47
B3: PRSIM_32: Tn3 PRSIM binding molecule, SEQ ID NO: 6 (protein)
chain: RLDAPSQIEVKDVTDTTALITWWSPRYYYASISGFELTYGIKDVPGDRTTIKLDYASNDYSIGNLKPDTEYEVSLISWNYGDWRYSSSNPAKITFKTGL
modifications: PRSIM_32

For the first assay, the target named is BSA (Bos taurus, UniProt P02769). In words: Biacore 8K BSA control. The format is binding. On the set-up: key: # = no binding; * = minimal non-specific binding. To be noted: 10 nM simeprevir present. Here is the method: (§1) The HCV NS3/4A PR (S139A), or BSA control, was diluted 1:4 (1.25-20 nM)±10 nM simeprevir in 10 mM Hepes pH 7.4, 150 mM NaCl, 0.05% Surfactant P20, 0.01% DMSO, ensuring constant simeprevir and DMSO concentration. The samples were flowed over the chip at 50 μl/min using single cycle kinetics, with 120 sec association and 600 sec dissociation. The chip surface was regenerated with two 20 sec pulses of 10 mM Glycine-HCl pH 3.0. The final sensorgrams were analysed using the Biacore 8K Evaluation Software and the affinity constant KD was determined using a 1:1 binding model. The same method was used for measuring the affinity of the HCV NS3/4A PR mutants for PRSIM_23 with minor deviations. The mutants were diluted 1:4 (2.5-40 nM)±simeprevir in 10 mM Hepes pH 7.4, 150 mM NaCl, 0.05% Surfactant P20, 0.08% DMSO, ensuring constant simeprevir and DMSO concentration. The samples were flowed over the chip at 50 μl/min using single cycle kinetics, with 180 sec association and 600 sec dissociation.
As for B1, the BSA control entry is given as “#”.

For the molecule B2, the BSA control result is given as “#”.

In the case of B3, the BSA control result is recorded as “#”.

Another assay deals with T1, HCV NS3/4A PR (S139A) (Hepatitis C virus subtype 1a, UniProt A8DG50, A1066T/I1043Q/I1044E/L1039E/L1040E/L1047Q/S1165A, form not given). As to the kind of experiment: HTRF binding screen. The following applies: in the presence of simeprevir. Here is the method:
scFv and Tn3 PRSIM binding molecules that were selective for the HCV NS3/4A PR (S139A) were identified in homogeneous time-resolved fluorescence (HTRF®) assays run in parallel to measure binding in the presence and absence of simeprevir. HCV NS3/4A PR (S139A), and serial dilutions of purified PRSIM binding molecules, were prepared in assay buffer (PBS containing 0.4 M potassium fluoride and 0.1% BSA). Streptavidin cryptate (Cisbio) was pre-mixed with either anti-FLAG XL665 (to detect the Tn3 molecules) or anti-c-myc XL665 (to detect the scFv molecules) in assay buffer. For each assay 2.5 μl of sample titration was added to 2.5 μl HCV NS3/4A PR (S139A) and 2.5 μl of pre-mixed detection reagents. Either 2.5 μl simeprevir or 2.5 μl of a DMSO blank were also added to each well. Background was defined using wells with zero sample addition. Assay plates were incubated overnight at 4° C., prior to reading the time resolved fluorescence at 620 nm and 665 nm emission wavelengths using a PerkinElmer Envision plate reader. Data was analysed by calculating % Delta F values for each sample. Delta F was determined according to equation 1.
% Delta F=((sample 665 nm/620 nm ratio value)−(background 665 nm/620 nm ratio value)/(background 665 nm/620 nm ratio value))×100 Equation 1
Selective binding molecules are defined as those scFv and Tn3 PRSIM binding molecules that bind to HCV NS3/4A PR (S139A) in complex with simeprevir and no binding to HCV NS3/4A PR (S139A).
A general note: Time-resolved FRET reads energy transfer from a long-lived donor to a nearby acceptor.
As to B1, the “HTRF max. signal (% delta F)” value is 1440 % delta F.

Turning to B2, the “HTRF max. signal (% delta F)” value amounted to 1367 % delta F.

Regarding B3, the “HTRF max. signal (% delta F)” value amounted to 1955 % delta F.

In the next assay the test system is luciferase reporter gene in HEK293 cells. In words: Transcriptional regulation assay (split transcription factor), luciferase reporter. It is filed as cell-based, human. The following applies: PRSIM fused to AD; one copy. The source says:
The iDimerize regulated transcription system (Takara) was used to test the ability of PRSIM-based CIDs to regulate gene expression. […] The DBD and AD are separately fused to the two protein components of a CID such that, only in the presence of the small molecule inducer, the AD is brought into close proximity to the DBD, recruiting the transcription machinery to a promoter harbouring the DBD recognition sites. The iDimerize regulated transcription system (Takara) provides two vectors, pHet-Act1-2 and pZFHD1-Luciferase. The pHet-Act1-2 vector encodes two fusion proteins that represent a positive control: one is a fusion between FRB (T82L mutant; DmrC) and an activation domain (AD) from human p65 (SEQ ID NO: 42); the other is a fusion protein comprised of a DNA binding domain (ZFHD1) (SEQ ID NO: 43) fused to three tandem copies of FKBP12 (DmrA). These sequences are preceded by a CMV promoter and separated by an internal ribosome entry site (IRES). The ZFHD1 vector encodes luciferase preceded by an inducible promoter consisting of 12 copies of the recognition sequence of the ZFHD1 DBD upstream of a minimal IL-2 promoter. Binding of the DBD to its recognition sequence and recruitment of the transcriptional machinery by the AD initiates transcription of the luciferase reporter gene. The DNA sequence encoding HCV NS3/4A PR (S139A) was purchased as a DNA string from GeneArt and cloned into the pHet-Act1-2 vector as either an N-terminal fusion partner to the activation domain (SEQ ID NO: 44) (replacing FRB) or as a C-terminal fusion partner to the DNA binding domain (SEQ ID NO: 45) (replacing FKBP12) with flexible linkers (TGGGGSGGGGS (SEQ ID NO: 185) and SA, respectively) between the fusion partners. Subsequently, sequences encoding one copy of a panel of 12 PRSIM molecules (Table 2) were purchased as DNA strings from GeneArt and were cloned using Gibson assembly into the HCV NS3/4A PR (S139A)-containing pHetAct1-2 constructs described above, as a fusion partner to either the DBD (SEQ ID NOS: 46-56) or AD (SEQ ID NOS: 57-67), respectively. An equivalent construct was generated to replace the three copies of FKBP12 in pHet-Act1-2 with a single copy of FKBP12. The sequence of the constructs encoding both activation domain and DNA-binding domain fusion proteins was confirmed by Sanger sequencing of the entire coding region.
Sequences encoding the three HCV NS3/4A PR (S139A) mutants (Table 6) were purchased as DNA strings from GeneArt and were cloned using Gibson assembly into the pHetAct1-2 HCV NS3/4A PR (S139A)-PRSIM_23 (3 tandem copy) construct described above as a fusion partner to the AD (SEQ ID NOs: 211-216).
All transcriptional regulation assays were performed in adherent HEK293 cells cultured in 384-well plates. Cells enzymatically dissociated from a tissue culture flask were counted and plated at 7.5×10^3 cells/well in a 384-well plate. The plates were incubated overnight at 37° C. with 5% CO2 to allow the cells to adhere. On day 2, the cells were co-transfected with a pHet-Act1-2 plasmid (containing the FRB:FKBP12 control fusion proteins (Clontech) or the HCV NS3/4A PR (S139A):PRSIM fusion proteins) and a pZFHD1 plasmid (encoding either luciferase (Clontech) or NanoLuc-PEST (as described above)) using Lipofectamine LTX (ThermoFisher). On day 3, wells were treated with different concentrations of either A/C heterodimeriser (for the FRB:FKBP12 control), simeprevir or with vehicle control, and 24 hours later luminescence was quantified with an Envision plate reader immediately following addition of SteadyGlo luciferase substrate (Promega) or Nano-Glo Vivazine luciferase substrate (Promega). Alternatively, reverse transfections were carried out on Day 1, addition of dimeriser on Day 2 and luminescence quantified 24 hours later on Day 3.
Luminescence readings were converted into fold-change by dividing the signal in the presence of simeprevir by that in the absence of simeprevir.
As for B1, the Max fold change is reported as 33.74.

In the case of B2, the Max fold change is on record as 3.85.

On to B3, for which the Max fold change is recorded as 2.2.

Staying with this assay, now noted: PRSIM fused to AD; one copy; simeprevir dose-response; read-out: EC50.
B1: the concentration giving a half-maximal response (EC50) amounted to 3.54 nM.

As to B2, the EC50 was found to be 6.15 nM.

For B3, the concentration for a half-maximal effect (EC50) was 12.3 nM.

The same assay, now with this note: PRSIM fused to DBD; one copy.
As for B1, the Max fold change stood at 73.3.

The molecule B2 had a Max fold change of 3.

For the molecule B3, the Max fold change was 65.77.

The same assay, now with this note: PRSIM fused to DBD; one copy; simeprevir dose-response; read-out: EC50.
Turning to B1, the EC50 came out at 5.66 nM.

For B2, the EC50 was 8.87 nM.

For B3, the concentration giving a half-maximal response (EC50) is 29.3 nM.

A further assay deals with T1, HCV NS3/4A PR (S139A). In words: Biacore 8K binding kinetics of PRSIM binding molecules. The following applies: 10 nM simeprevir present. The procedure:
The scFv and Tn3 PRSIM binding molecules were covalently immobilised to a CM5 chip surface using standard amine coupling techniques at a concentration of 1 μg/ml in 10 mM sodium acetate pH 4.5.
as §1
For orientation: Surface plasmon resonance follows binding to a sensor surface in real time, without labels.
With B1, the Rmax stood at 214.4 RUs, the ka was found to be 5.15e+06 M⁻¹ s⁻¹ and the kd is 0.0498 s⁻¹.

B2 registered an Rmax of 9 RUs, a ka of 1.32e+10 M⁻¹ s⁻¹ and a kd of 51.2 s⁻¹.

Regarding B3, the Rmax was determined as 19.9 RUs, the ka is reported as 2.51 E+09 M^−1 s^−1 and the kd was 40.1 s⁻¹.

As usually defined, the EC50 is the concentration giving half of the maximal effect.
